Reference: patent US20080267948A1, “Croos-B Structure Binding Compounds” (priority 2005, published 2008)

Tests used:
[1] = molecular target: T1, glycated albumin (BSA-AGE) (Bos taurus, UniProt P02769); assay: ELISA binding of recombinant human BiP to BSA-AGE, with or without tPA or K2P-tPA; set-up: species or system bovine; settings: cell culture supernatant of HEK 293E cells
T1 construct: purchased Sigma-Aldrich A-7906
Protocol: Proteins at 5 μg/ml were coated for 1 h at room temperature with agitation, in Microlon high-binding ELISA plates (Greiner) in 50 mM NaHCO3 pH 9.6. Buffer was coated as negative control. A twofold dilutions series of cell culture supernatant of HEK 293E cells over-expressing BiP was also coated to the plate for anti-FLAG-tag antibody control purposes. Plates were washed and blocked with ½*Blocking reagent (Roche). Undiluted cell culture supernatant enriched with 0.1% Tween20 was added to the wells with immobilized protein ligands and incubated for 1 h at room temperature with agitation. Medium was discarded and the plate was washed with PBS with 0.1% v/v Tween20. Mouse monoclonal anti-FLAG-tag antibody (Sigma, A8592, anti-FLAG M2PO conjugate) was diluted 1000× in PBS/0.1% Tween20 and added to all wells, including those that are coated with cell culture supernatant. After a 1 h incubation at room temperature with agitation and after washing, wells were overlayed with 3000× diluted RAMPO (DAKOCytomation) in PBS/0.1% Tween20. […] Absorbance was read at 450 nm.
Hb-AGE, Hb, BSA-AGE, BSA and buffer were coated. The threefold diluted cell supernatants were applied to the ELISA plate in duplicates and BiP binding was subsequently measured as described above. […]

[2] = molecular target: T2, glycated haemoglobin (Hb-AGE) (Homo sapiens, UniProt P68871+P69905); assay: ELISA binding of recombinant human BiP to Hb-AGE, with or without tPA or K2P-tPA; settings: cell culture supernatant of HEK 293E cells
T2 construct: purchased Sigma-Aldrich H7379
T2 sequence (P69905 2-142 limits assumed): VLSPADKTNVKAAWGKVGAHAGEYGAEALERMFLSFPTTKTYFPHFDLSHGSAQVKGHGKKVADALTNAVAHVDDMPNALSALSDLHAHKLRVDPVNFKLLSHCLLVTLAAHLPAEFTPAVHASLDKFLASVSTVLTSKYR
T2 sequence (P68871 2-147 limits assumed): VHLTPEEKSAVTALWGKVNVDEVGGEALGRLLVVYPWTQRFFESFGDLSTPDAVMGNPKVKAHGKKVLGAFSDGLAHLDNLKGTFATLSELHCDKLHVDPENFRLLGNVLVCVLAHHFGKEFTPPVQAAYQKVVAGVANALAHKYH
From the text: Absorbance was read at 450 nm.
The threefold diluted cell supernatants were applied to the ELISA plate in duplicates and BiP binding was subsequently measured as described above. Coat efficiency was checked with specific anti-AGE antibody, anti-albumin antibody and anti-Hb antibody.

factor XII = molecular target: T3, factor XII (Homo sapiens, UniProt P00748); assay: ELISA binding of β2GPI to immobilized factor XII; set-up: human factor XII from plasma (Calbiochem); purchased Calbiochem; host or cells: human plasma; settings: factor XII immobilized
T3 sequence (P00748 20-615): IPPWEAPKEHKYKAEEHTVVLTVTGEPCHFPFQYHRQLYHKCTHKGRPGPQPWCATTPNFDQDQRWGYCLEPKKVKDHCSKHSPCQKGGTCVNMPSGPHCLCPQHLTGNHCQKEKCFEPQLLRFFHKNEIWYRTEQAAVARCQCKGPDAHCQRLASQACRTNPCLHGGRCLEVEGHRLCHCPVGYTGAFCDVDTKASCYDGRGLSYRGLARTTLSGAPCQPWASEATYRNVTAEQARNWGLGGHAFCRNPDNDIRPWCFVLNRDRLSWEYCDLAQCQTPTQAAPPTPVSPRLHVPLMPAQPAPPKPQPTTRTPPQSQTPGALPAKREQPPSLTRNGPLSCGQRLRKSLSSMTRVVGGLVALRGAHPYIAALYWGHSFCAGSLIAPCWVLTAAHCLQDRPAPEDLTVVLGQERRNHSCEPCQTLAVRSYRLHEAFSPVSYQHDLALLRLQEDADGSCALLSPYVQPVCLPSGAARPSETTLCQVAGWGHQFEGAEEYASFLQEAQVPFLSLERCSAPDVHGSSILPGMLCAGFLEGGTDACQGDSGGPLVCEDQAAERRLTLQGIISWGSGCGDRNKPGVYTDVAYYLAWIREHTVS
Protocol: (§1) Binding of β2GPI was assessed with monoclonal antibody 2B2^17.

[3] = tested on: anti-β2GPI auto-antibodies from antiphospholipid syndrome patients; assay: Interference with binding of anti-β2GPI autoantibodies to immobilized β2GPI; set-up: species or system human; settings: concentration series of β2GPI in solution
Protocol: β2GPI by recombinant β2GPI and not by plasma derived β2GPI When plasma derived β2GPI is coated onto hydrophilic ELISA plates, anti-β2GPI auto-antibodies isolated from plasma of antiphospholipid syndrome autoimmune patients can bind^18. To study the influence of coincubations of the coated β2GPI with the antibodies together with plasma β2GPI or recombinant β2GPI, concentration series of β2GPI were added to the patient antibodies. Subsequently, binding of the antibodies to coated β2GPI was determined.

tPA [4] = molecular target: T4, tPA (Homo sapiens, UniProt P00750); assay: ELISA binding of β2GPI to immobilized tPA; settings: tPA immobilized
T4 sequence (P00750 36-562): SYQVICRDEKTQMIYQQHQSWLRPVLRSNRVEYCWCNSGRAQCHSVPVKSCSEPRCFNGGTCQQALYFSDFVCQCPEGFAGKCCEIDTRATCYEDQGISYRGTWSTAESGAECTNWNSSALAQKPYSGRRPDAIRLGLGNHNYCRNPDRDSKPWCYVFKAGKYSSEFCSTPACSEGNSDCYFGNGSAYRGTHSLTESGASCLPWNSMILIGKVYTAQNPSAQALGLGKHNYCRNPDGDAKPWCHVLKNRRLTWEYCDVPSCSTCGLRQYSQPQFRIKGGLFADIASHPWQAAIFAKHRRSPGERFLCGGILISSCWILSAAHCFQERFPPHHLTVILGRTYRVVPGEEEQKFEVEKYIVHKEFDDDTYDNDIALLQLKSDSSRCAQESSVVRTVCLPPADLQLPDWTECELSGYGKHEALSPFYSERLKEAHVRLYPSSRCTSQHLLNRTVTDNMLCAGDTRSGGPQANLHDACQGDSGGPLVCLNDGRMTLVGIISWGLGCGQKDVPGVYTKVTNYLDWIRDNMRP
Protocol: as §1

tPA [5] = molecular target: T4, tPA; assay: Plasminogen activation assay (tPA-mediated conversion of Plg to plasmin); type: biochemical; set-up: purchased Boehringer-Ingelheim Actilyse; settings: 100 μg ml^−1 protein or peptide, 400 pM tPA, substrate S-2251
Protocol: Plasmin (Plm) activity was assayed as described^4. Peptides and proteins that were tested for their stimulatory ability were used at 100 μg ml^−1, unless stated otherwise. […] Chromogenic substrate S-2251 (Chromogenix, Instrumentation Laboratory SpA, Milano, Italy) was used to measure Pls activity.
Purification of β2-glycoprotein I (β2GPI) was performed according to established methods^15,16. Recombinant human β2GPI was made using insect cells and purified as described^15. Plasma derived β2GPI as used in a factor XII ELISA, the Plg-activation assay and in the anti-phospholipid syndrome antibody ELISA (see below), was purified from fresh human plasma as described^16. […]
Solutions of fibrin peptide FP6, NH2—IDIKIR-COOH (Peptide facility, Dutch Cancer Institute, Amsterdam, the Netherlands) were prepared in various ways. […] Separate samples were prepared similarly and analyzed by electron spray ionization mass spectrometry (ESI-MS) to obtain information on the distribution of the peptide over putatively present oligomers (Dr C. Versluis, Department of Biomolecular Mass Spectrometry, Bijvoet Center for Biomolecular Research, Utrecht University, Utrecht, The Netherlands). […] Micrographs were recorded at 80 kV, at suitable magnifications on a JEM-1200EX electron microscope (JEOL, Japan).

T1 sequence (P02769 25-607): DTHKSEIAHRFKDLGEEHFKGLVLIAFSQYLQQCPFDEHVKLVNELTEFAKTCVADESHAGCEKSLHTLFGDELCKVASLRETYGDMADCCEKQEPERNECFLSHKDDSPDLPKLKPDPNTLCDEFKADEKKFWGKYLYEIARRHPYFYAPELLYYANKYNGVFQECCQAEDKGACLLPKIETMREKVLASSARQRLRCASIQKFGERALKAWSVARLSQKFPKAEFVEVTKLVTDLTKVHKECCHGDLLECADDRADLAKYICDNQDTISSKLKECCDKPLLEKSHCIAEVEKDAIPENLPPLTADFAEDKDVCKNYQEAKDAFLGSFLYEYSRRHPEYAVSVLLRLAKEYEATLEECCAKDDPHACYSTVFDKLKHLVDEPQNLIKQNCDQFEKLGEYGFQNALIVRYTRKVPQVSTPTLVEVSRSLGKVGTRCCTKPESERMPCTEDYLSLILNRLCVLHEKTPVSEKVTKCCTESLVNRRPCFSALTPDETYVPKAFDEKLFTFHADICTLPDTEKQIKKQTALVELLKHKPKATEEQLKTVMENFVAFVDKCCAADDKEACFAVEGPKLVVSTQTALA

## BiP: recombinant human BiP with carboxy-terminal linker, FLAG-tag and His-tag, expressed in HEK 293E cells
[1]
  BiP binding to BSA-AGE and native BSA: binds to glycated albumin (BSA-AGE) and not to native BSA
[2]
  BiP binding to Hb-AGE and native haemoglobin: binds to glycated haemoglobin (Hb-AGE) and to a lesser extent to coated native haemoglobin

B1: Recombinant β2GPI: recombinant human β2-glycoprotein I made using insect cells (protein, UniProt P02749 20-345, looked up)
Beta-2-glycoprotein 1: GRTCPKPDDLPFSTVVPLKTFYEPGEEITYSCKPGYVSRGGMRKFICPLTGLWPINTLKCTPRVCPFAGILENGAVRYTTFEYPNTISFSCNTGFYLNGADSAKCTEEGKWSPELPVCAPIICPPPSIPTFATLRVYKPSAGNNSLYRDTAVFECLPQHAMFGNDTITCTTHGNWTKLPECREVKCPFPSRPDNGFVNYPAKPTLYYKDKATFGCHDGYSLDGPEEIECTKLGNWSAMPSCKASCKVPVKKATVVYQGERVKIQEKFKNGMLHGDKVSFFCKNKEKKCSYTEDAQCIDGTIEVPKCFKEHSSLAFWKTDASDVKPC
modifications: recombinant, insect cells
Factor XII
  kD of binding to factor XII: 0.9 µg/mL
[3]
  inhibition of binding of anti-β2GPI auto-antibodies to immobilized β2GPI: efficiently inhibits binding of anti-β2GPI auto-antibodies to immobilized β2GPI
tPA [4]
  kD of binding to tPA: 2.3 µg/mL
tPA [5]
  stimulation of tPA-mediated conversion of Plg to plasmin: stimulate tPA-mediated conversion of Plg to plasmin
